# Laboratory results published in patent US20220276241A1 (TRUSTEES OF INDIANA UNIVERSITY, published 2022).
# T1: PhnD E177NΔ (E. coli, UniProt P16682 27-329, acrylodan on Cys 126)
# T1 chain: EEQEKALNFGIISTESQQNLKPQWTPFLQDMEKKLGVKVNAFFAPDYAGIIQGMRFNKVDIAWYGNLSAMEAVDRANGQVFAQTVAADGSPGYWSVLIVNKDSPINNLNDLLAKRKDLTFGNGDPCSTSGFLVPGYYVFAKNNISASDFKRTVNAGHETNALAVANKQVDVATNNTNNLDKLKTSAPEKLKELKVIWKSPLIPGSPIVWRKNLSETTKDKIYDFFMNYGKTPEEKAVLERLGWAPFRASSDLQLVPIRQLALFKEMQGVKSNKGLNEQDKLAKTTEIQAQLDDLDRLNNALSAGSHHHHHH
# B1: Fab N2 (Fab, V domains shown)
# VH: EVQLVESGGGLVQPGGSLRLSCAASGFNFSSSIHWVRQAPGKGLEWVASISSSSGSTSYADSVKGRFTISADTSKNTAYLQMNSLRAEDTAVYYCARQWSSVMEWYIGLDYWGQGTLVTVSS
# VL: DIQMTQSPSSLSASVGDRVTITCRASQSVSSAVAWYQQKPGKAPKLLIYSASSLYSGVPSRFSGSRSGTDFTLTISSLQPEDFATYYCQQSSSSLITFGQGTKVEIKR
# Target: T1, PhnD E177NΔ
# Assay: cell-based or functional assay
binder,measurement,value
B1,Kd of the PhnD mutant for glyphosate in the presence of Fab N2 (fluorescence titration),450 nM
same,"fold improvement of the Kd for glyphosate on adding Fab N2, compared to the mutant in the absence of Fab N2",~18 fold
